Article PMC7077846 (PLoS Biology, 2020)

B1: human 20S proteasome subunit α7 (natural protein)
chain: MSSIGTGYDLSASTFSPDGRVFQVEYAMKAVENSSTAIGIRCKDGVVFGVEKLVLSKLYEEGSNKRLFNVDRHVGMAVAGLLADARSLADIAREEASNFRSNFGYNIPLKHLADRVAMYVHAYTLYSAVRPFGCSFMLGSYSVNDGAQLYMIDPSGVSYGYWGCAIGKARQAAKTEIEKLQMKEMTCRDIVKEVAKIIYIVHDEVKDKAFELELSWVGELTNGRHEIVPKDIREEAEKYAKESLKEEDESDDDNM
notes: 20S proteasome subunit α7, human; named only as α7; Stood in the experiment as a subunit of the whole 20S core particle; source: bought: Boston Biochem, as part of the human 20S proteasome
B2: human 20S proteasome subunit α5 (natural protein)
chain: MFLTRSEYDRGVNTFSPEGRLFQVEYAIEAIKLGSTAIGIQTSEGVCLAVEKRITSPLMEPSSIEKIVEIDAHIGCAMSGLIADAKTLIDKARVETQNHWFTYNETMTVESVTQAVSNLALQFGEEDADPGAMSRPFGVALLFGGVDEKGPQLFHMDPSGTFVQCDARAIGSASEGAQSSLQEVYHKSMTLKEAIKSSLIILKQVMEEKLNATNIELATVQPGQNFHMFTKEELEEVIKDI
notes: 20S proteasome subunit α5, human; named only as α5; Stood in the experiment as a subunit of the whole 20S core particle; source: bought: Boston Biochem, as part of the human 20S proteasome
B3: human 20S proteasome subunit α4 (natural protein)
chain: MSYDRAITVFSPDGHLFQVEYAQEAVKKGSTAVGVRGRDIVVLGVEKKSVAKLQDERTVRKICALDDNVCMAFAGLTADARIVINRARVECQSHRLTVEDPVTVEYITRYIASLKQRYTQSNGRRPFGISALIVGFDFDGTPRLYQTDPSGTYHAWKANAIGRGAKSVREFLEKNYTDEAIETDDLTIKLVIKALLEVVQSGGKNIELAVMRRDQSLKILNPEEIEKYVAEIEKEKEENEKKKQKKAS
notes: 20S proteasome subunit α4, human; named only as α4; Stood in the experiment as a subunit of the whole 20S core particle; source: bought: Boston Biochem, as part of the human 20S proteasome
B4: human 20S proteasome subunit α2 (natural protein)
chain: MAERGYSFSLTTFSPSGKLVQIEYALAAVAGGAPSVGIKAANGVVLATEKKQKSILYDERSVHKVEPITKHIGLVYSGMGPDYRVLVHRARKLAQQYYLVYQEPIPTAQLVQRVASVMQEYTQSGGVRPFGVSLLICGWNEGRPYLFQSDPSGAYFAWKATAMGKNYVNGKTFLEKRYNEDLELEDAIHTAILTLKESFEGQMTEDNIEVGICNEAGFRRLTPTEVKDYLAAIA
notes: 20S proteasome subunit α2, human; named only as α2; Stood in the experiment as a subunit of the whole 20S core particle; source: bought: Boston Biochem, as part of the human 20S proteasome
B5: human 20S proteasome subunit α3 (natural protein)
chain: MSRRYDSRTTIFSPEGRLYQVEYAMEAIGHAGTCLGILANDGVLLAAERRNIHKLLDEVFFSEKIYKLNEDMACSVAGITSDANVLTNELRLIAQRYLLQYQEPIPCEQLVTALCDIKQAYTQFGGKRPFGVSLLYIGWDKHYGFQLYQSDPSGNYGGWKATCIGNNSAAAVSMLKQDYKEGEMTLKSALALAIKVLNKTMDVSKLSAEKVEIATLTRENGKTVIRVLKQKEVEQLIKKHEEEEAKAEREKKEKEQKEKDK
notes: 20S proteasome subunit α3, human; named only as α3; Stood in the experiment as a subunit of the whole 20S core particle; source: bought: Boston Biochem, as part of the human 20S proteasome

The molecules below were run against human 20S proteasome core particle (human) (UniProt P60900) (assay: not given). Conditions: not given.
Sequence of human 20S proteasome core particle (human) (P60900 whole entry, looked up): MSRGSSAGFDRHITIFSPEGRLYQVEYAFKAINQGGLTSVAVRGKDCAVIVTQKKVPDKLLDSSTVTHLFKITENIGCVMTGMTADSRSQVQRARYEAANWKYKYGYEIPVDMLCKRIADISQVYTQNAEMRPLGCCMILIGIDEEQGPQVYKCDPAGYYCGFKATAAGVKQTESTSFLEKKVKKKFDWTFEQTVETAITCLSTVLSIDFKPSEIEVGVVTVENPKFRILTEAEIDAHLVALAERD

Vmax of cleavage of Suc-LLVY-AMC (chymotryptic-like activity) by PA200-20S, 2.5 nM; 20S alone 3.14 μM/min | Molecule
11.4 µM/min | human proteasome activator 200 (PA200) (from UniProt Q14997 1-1843) (natural protein)

These molecules were tested against T1, human proteasome activator 200 (PA200) (human, UniProt Q14997 1-1843) (assay: cryo-EM structure; 3 μl 20S-CP (approximately 1.4 mg/ml) incubated with 6 μl PA200 (approximately 0.44 mg/ml) in ice for 1 h; single-capped PA200-20S particles selected; 2.72 Å). Conditions: both partners purified.
T1 construct: Carries the cofactors 5,6[PP]2-InsP4 and InsP6 in its two openings; The results say 1,844 residues, the methods 1-1,843; source: Trichoplusia ni (Hi5) insect cells, baculovirus (Bac-to-Bac), purified (Ni-NTA, gel filtration on Superose 6)
T1 sequence (Q14997 whole entry): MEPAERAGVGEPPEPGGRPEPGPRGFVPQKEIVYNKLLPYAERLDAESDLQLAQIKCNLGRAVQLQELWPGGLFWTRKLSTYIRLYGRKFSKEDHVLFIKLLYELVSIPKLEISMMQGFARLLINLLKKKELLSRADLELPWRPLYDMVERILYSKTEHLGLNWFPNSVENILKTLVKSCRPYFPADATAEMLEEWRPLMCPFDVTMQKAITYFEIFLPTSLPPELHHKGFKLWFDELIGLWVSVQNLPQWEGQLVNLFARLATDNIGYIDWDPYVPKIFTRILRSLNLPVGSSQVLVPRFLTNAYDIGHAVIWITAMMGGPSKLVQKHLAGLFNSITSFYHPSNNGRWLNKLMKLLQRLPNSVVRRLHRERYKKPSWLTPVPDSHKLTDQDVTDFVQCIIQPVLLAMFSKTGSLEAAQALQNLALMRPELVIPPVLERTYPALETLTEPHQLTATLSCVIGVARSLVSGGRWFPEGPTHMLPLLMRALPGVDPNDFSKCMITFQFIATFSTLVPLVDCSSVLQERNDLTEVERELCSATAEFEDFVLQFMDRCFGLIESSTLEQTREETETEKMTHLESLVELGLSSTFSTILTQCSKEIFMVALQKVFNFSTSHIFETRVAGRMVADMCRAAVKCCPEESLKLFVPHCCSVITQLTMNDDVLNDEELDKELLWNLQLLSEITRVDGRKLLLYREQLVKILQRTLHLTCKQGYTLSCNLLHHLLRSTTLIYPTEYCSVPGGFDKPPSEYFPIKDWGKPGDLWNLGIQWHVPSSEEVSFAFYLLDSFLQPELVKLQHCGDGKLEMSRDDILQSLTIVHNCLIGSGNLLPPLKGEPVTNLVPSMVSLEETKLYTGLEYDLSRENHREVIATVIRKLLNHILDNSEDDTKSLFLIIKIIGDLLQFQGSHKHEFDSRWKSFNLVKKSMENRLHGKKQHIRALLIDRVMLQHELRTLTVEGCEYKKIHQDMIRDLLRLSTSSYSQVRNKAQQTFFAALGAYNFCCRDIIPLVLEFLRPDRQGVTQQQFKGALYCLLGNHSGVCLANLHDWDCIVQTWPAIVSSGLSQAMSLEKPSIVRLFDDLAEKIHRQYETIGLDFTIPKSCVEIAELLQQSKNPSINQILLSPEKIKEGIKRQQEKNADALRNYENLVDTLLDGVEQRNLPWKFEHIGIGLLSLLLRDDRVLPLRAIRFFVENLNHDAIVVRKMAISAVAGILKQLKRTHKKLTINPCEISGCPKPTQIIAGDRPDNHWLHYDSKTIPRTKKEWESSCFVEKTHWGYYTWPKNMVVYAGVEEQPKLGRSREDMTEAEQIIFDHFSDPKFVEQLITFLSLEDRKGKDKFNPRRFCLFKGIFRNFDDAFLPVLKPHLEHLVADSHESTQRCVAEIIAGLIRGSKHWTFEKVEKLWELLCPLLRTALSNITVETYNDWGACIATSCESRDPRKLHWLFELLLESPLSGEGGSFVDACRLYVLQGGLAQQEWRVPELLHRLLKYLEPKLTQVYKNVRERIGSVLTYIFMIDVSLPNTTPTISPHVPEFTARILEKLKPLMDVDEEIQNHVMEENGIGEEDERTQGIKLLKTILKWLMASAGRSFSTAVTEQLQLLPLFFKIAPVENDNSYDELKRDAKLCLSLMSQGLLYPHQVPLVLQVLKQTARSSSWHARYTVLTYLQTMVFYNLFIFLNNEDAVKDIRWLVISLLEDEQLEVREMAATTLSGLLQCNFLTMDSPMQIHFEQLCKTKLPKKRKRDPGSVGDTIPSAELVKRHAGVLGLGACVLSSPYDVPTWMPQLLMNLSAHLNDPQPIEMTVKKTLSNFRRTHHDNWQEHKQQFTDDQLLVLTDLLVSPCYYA

binding result | Molecule
binds | B1
binds | B2
binds | B3
binds | B4
binds | B5
